Results reported in the nanobody polyreactivity screen of Harvey et al. (2022).

Experiment: yeast display, Sf9 membrane polyspecificity reagent, FACS + sequencing; frameworks hold sequencing errors
Outline: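 Synthetic nanobody libraries on Saccharomyces cerevisiae BJ5465 were galactose-induced for 36–48 hours, stained 1 hour at 4 °C with 10% biotinylated, detergent-solubilized Sf9 membrane reagent and enriched on streptavidin microbeads. FACS then separated cells into low and high (top ~1%) gates by anti-HA (expression) and streptavidin (reagent binding) fluorescence. Genes were colony-PCR amplified, MiSeq 2 × 250 sequenced and CDR-length filtered. A clone's polyreactivity label is that of its gate of origin.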

Sequence | polyreactivity (PSR sort gate)
QVQLVESGGGLVQAGGSLRLSCAASGRTFKYYAMGWYRQAPGKERELVAAITRSGSTNYADSVKGRFTISRDNAKNSVYLQMNSLKPEDTAVYYCAADVTLYYRGRRYYYWGQGTQVTVSS | high polyreactivity
QVQLVESGGGLVQAGGSLRLSCAASGRTFSRYVMGWYRQAPGKERELVATISRSGGSTFYADSVKGRFTISRDTAKNTVYLQMNSLKPEDTAVYYCNKKVQGYQVTYGYCGQGTQVTVSS | high polyreactivity
QVQLVESGGGLVQAGGSLRLSCAASGSIFTGNTMGSDRQAPGKERELVAAISRSGGSTYYADSVKGRFTISRDNAKNTVYLQMNSLKPEDTAVYYCAAYRTHGPPRAIRFDYWGQGTQVTVSS | high polyreactivity
QVQLVESGGGLVQAGGSLRLSCDASGRTFGQNAMGWYRQAPGTERELVDAISASGSNTYYADSVKGRFTISRDNAKNTVYLQMNSLKPEDTAVYYCAKQVYRPGQQSRYDYWGQGTQVTVSS | low polyreactivity
QVQLVESGGGLVQAGGSLRLSCAASGSTFVGNAMGWYRQAPGKERELVATMSNSGGRTYYADSVKGRFTISRDNAKNSVYLQMNSLKPEDTAVYFCNAQFDLTFRGTGDYWGQGTQVTVSS | low polyreactivity
QVQLVESGGGLVQAGGSLRLSCAASGITFDYYVMGWYRQAPGKERELVAAISWSGGTTYYADSVKGRFTISRDYAKNTVYLQMNSLKPEDTAVYYCNAEHTGSFYGGYPWEMEYWGQGTQVTVSS | low polyreactivity
QDQLVESGGGLVQAGGSLRLSCAATASIFVTYAMGWYRQAPGQERELVAAINYSGGSTYYADSVKGRFTISRDNAKNTFYLQMNSLKPEDTAVNYCAADERVDQGWIRMDYWGQGTQVTVSS | low polyreactivity
QVQLVESGGGLVQAGGRLRLSCAASGITFTYYSMGGYRQAPGKERELVAAITDDGNTNYADSVKGRFTISRDNAKNTVYLQMNSLIPEDTAVYYCAADLLGIPDYEYWGQGTQVTVSS | low polyreactivity
QVQLVESGGGLVQAGGSLRLSCAASGFIFPRYAMGWYRQAPGKERELVAAISYSGGSTYYADSVKGRFTISRDNAKNTVYLQMNSLKPEDTAVYYCNAYFLSQYQRAYRDDYWGQGTQVTVST | high polyreactivity
QVQLVDSGGGLVQAGGSLRLSCAASGRIFYQYAMGWYRQAPGKERELVAGISKRGGSTYYADSVKGRFTISRDNAKNTVYLQMNSLKPEDTAVYYCARGGYPGSAEYDYWGQATQVTVSS | high polyreactivity
QVQLVESGGGLVQAGGSLRLSCAASGRTFYYYAMGWYRQAPGKERELVAAISGSGGSTYYADSVKGRFTISRDIAKNTVYLQMNSLKPEDTAVYYCAASGPRRRYDYWGQGTQVTVSS | high polyreactivity
QVQLVESGGGLVQAGGSLRLSCAASGSTLPSNTMGWYRQAPGKERELVAAISRNGGSTYYADSVKGRFTISRDNAKNTVYLQMNSLKPEDTAVYYCNRVYRERYPYVLYGYWGQGTQVTVSS | high polyreactivity
QVQLVESGGGLVQAGGSLRLSCAASGSILAANAMGWYRQAPGKERELVAAIDWTGGDTYYADSVKGRFTISRDNAKNTVYLQMNSLKPEDTAVYYCAAEFVWPSIAYDVEYDYWGQGTQVTVSS | low polyreactivity
QVQLVESGGGLVQAGGSLRLSCAASGITFQNYAMGWYRQAPGKEMELVAAITRSGGRTYYADSVKGRFTNSRDNANYTVYLQMNSLKQEDTAVYYCAVYGIGRPYWYDYWGQGTQVTVSS | high polyreactivity
QVQLVESGGGLVQAGGSLRLSCAASGLIFQVYDMGWYRQAPGKERELVAAISSGSNTNYADSVKGRFTISRDNAKNTVYLQMNSLKPEDTAVYYCAASLGYGAMTPDMGYWGQVTQVTVSS | low polyreactivity
QVQLVESGAGLVQAGGSLRLTCAASGIIFPFYAMGWYRQAPGKERELVAGITSGGDTYYADSVKGRFTISRDNAKNTVYLQMNSLKPEDTAVSYCAAVYRRQYGYWGQGTQVTVSS | high polyreactivity
QVQLVESGGGLVQAGGSLRLSCAASGRIFGGYAMGWYRQAPGKERELVAAISNGGSTYYADSVKGRFTISRDNAKNTVYLQMNSLKPEDTAVYYCAARWNWTGYRYDHWGQGTQVTVSS | low polyreactivity
